Where “and” joins values, the source holds several entries; their conditions need not be identical. Equal entries are not always repeated.
T1: clathrin N-terminal domain (TD) of the clathrin heavy chain, bovine, residues 1-363 (bovine, UniProt P49951 1-363)
T1 sequence (looked up): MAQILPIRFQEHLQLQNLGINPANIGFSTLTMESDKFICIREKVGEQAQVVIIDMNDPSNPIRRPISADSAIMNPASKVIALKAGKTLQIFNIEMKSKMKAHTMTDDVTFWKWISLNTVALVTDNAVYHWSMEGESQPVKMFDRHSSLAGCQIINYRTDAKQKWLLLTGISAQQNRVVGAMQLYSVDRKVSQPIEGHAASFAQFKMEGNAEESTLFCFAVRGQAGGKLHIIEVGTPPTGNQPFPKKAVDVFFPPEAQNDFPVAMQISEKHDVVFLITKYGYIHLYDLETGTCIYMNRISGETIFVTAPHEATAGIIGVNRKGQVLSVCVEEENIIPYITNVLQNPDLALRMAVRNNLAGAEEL


Legend:
[1] = target: amphiphysin clathrin-box peptide clathrin-box peptide (UniProt P49418); conditions: cited from earlier work
Chain of amphiphysin clathrin-box peptide clathrin-box peptide (P49418 whole entry, looked up, the tested form may be a part): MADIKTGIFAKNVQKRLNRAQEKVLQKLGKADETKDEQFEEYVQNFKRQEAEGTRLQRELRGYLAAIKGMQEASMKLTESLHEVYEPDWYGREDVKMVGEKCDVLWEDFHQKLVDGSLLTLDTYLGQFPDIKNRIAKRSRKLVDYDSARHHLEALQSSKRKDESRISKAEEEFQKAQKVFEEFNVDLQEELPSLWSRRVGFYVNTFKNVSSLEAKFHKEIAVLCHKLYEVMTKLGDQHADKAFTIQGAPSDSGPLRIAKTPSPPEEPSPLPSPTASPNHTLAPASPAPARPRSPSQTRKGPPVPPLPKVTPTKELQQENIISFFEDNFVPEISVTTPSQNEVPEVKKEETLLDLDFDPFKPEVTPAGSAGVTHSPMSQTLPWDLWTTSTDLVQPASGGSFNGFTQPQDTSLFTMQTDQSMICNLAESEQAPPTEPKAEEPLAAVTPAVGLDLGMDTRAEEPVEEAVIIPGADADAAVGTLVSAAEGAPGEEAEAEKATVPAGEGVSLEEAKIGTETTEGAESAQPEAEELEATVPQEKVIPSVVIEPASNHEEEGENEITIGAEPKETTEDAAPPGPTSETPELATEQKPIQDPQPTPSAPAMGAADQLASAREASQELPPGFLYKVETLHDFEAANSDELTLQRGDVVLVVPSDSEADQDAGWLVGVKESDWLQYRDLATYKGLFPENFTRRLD

[2] = target: T1, clathrin N-terminal domain (TD) of the …; test: NMR titration
[3] = target: T1, clathrin N-terminal domain (TD) of the …; test: ITC

| Molecule | Kd [1] [µM] | Kd [2] [µM] | stoichiometry N [2] | Kd [3] | dH [3] [kcal/mol] | stoichiometry N [3] |
| --- | --- | --- | --- | --- | --- | --- |
| clathrin heavy chain N-terminal domain (from UniProt P49951) | 22 | – | – | – | – | – |
| CSPAKAESSGVIDLFGDAFGSGASETQ [AP180 peptide 1 (residues 627-652 of mouse AP180)] | – | 829 ± 221 | 3.9 ± 0.3 | – | – | – |
| CPQAVASSSASADLLAGFGGSFMAPS [AP180 peptide 2 (residues 655-679 of mouse AP180)] | – | 899 ± 529 | 3.7 ± 0.6 | – | – | – |
| CQVIPSQGDLLGDLLNLDLGPPVNVPQ [AP2 peptide (clathrin-box peptide from the hinge of the AP2 β2 subunit, residues 619-644)] | – | 867 ± 246 | 2.6 ± 0.4 | 420 µM and 474 µM | -2.8 | 3.01 and 3 |

— publication PMC4429812 (Biochemistry, 2015)
